The text below walks through data of patent publication US20100285988A1 (published 2010).

A word on the IC50: it is the concentration that gives 50% inhibition. Higher therefore signals lower potency.

Sequences and labels used below:
B1: Aβ17-23 heptapeptide with the Iowa mutation (D23N) (peptide)
peptide: LVFFAEN
B2: Aβ17-23 heptapeptide with the Arctic mutation (E22G) (peptide)
peptide: LVFFAGD
B3: Aβ17-23 heptapeptide with the Dutch mutation (E22Q) (peptide)
peptide: LVFFAQD
B4: Aβ17-23 heptapeptide with the Italian mutation (E22K) (peptide)
peptide: LVFFAKD
B5: Aβ17-23 heptapeptide with the Flemish mutation (A21G) (peptide)
peptide: LVFFGED

In the assay the target is γ-secretase (human; HeLa cell membrane / solubilized HeLa membrane; endogenous in HEK293 cells) (human, UniProt P49768 1-467; Q92542 34-709; Q9NZ42 1-101; Q96BI3 1-265).
Molecule B1 yielded an IC50 of 2.94 µM.
The molecule B2 gave an IC50 of 3.89 µM. The IC50 values of the last two molecules are within 1.5-fold of each other.
For B3, the midpoint of inhibition, the IC50, lay at 2.12 µM.
The value for B4 was 2.13 µM; that for B5 was 5.27 µM.
